The text below walks through data of the RNAGym collection of RNA variant scans (doi:10.1021/acssynbio.7b00057).

Sequences and labels used below:
B1: Pistol ribozyme (parent)
chain: GGGUCGUUGUUCCAUAAUCGCGUGGAUAUGGCACGCAAGUUUCUACCGGGCACCGUAAAUGUCCGACUGGAGCCGUUCGGGCGGCUAUAAACAGACCUCAGGCCCGAAGCGUGGCGGCACCUGCCGCCGGUGGUAAAAAAGAUCGGAAGAGCACACGUCU

The data set covers variants of B1. The data set is described as follows: aptazyme ON/OFF ratio, guanine; higher = stronger switching; co-transcriptional cleavage with and without guanine.
Turning to GGGUCGCUACUCUAUAAUCGCGUGGAUAUGGCACGCAAGUUUCUACCGGGCACCGUAAAUGUCCGACUGGAGCCGUUCGGGCGGCUAUAAACAGACCUCAGGCCCGAAGCGUGGCGGCACCUGCCGCCGGUGGUAAAAAAGAUCGGAAGAGCACACGUCU, the “aptazyme ON/OFF ratio” value was 1.96.

For the variant GGGUCGCUACUCAAUAAUCGCGUGGAUAUGGCACGCAAGUUUCUACCGGGCACCGUAAAUGUCCGACUGGAGCCGUUCGGGCGGCUAUAAACAGACCUCAGGCCCGAAGCGUGGCGGCACCUGCCGCCGGUGGUAAAAAAGAUCGGAAGAGCACACGUCU, the “aptazyme ON/OFF ratio” value was 1.07.

For GGGUCGCUACUCGAUAAUCGCGUGGAUAUGGCACGCAAGUUUCUACCGGGCACCGUAAAUGUCCGACUGGAGCCGUUCGGGCGGCUAUAAACAGACCUCAGGCCCGAAGCGUGGCGGCACCUGCCGCCGGUGGUAAAAAAGAUCGGAAGAGCACACGUCU, the “aptazyme ON/OFF ratio” value came to 1.06.

As to GGGUCGCUACAAGAUAAUCGCGUGGAUAUGGCACGCAAGUUUCUACCGGGCACCGUAAAUGUCCGACUGGAGCCGUUCGGGCGGCUAUAAACAGACCUCAGGCCCGAAGCGUGGCGGCACCUGCCGCCGGUGGUAAAAAAGAUCGGAAGAGCACACGUCU, the “aptazyme ON/OFF ratio” value came out at 1.22.

For the variant GGGUCGCUACAAAAUAAUCGCGUGGAUAUGGCACGCAAGUUUCUACCGGGCACCGUAAAUGUCCGACUGGAGCCGUUCGGGCGGCUAUAAACAGACCUCAGGCCCGAAGCGUGGCGGCACCUGCCGCCGGUGGUAAAAAAGAUCGGAAGAGCACACGUCU, the “aptazyme ON/OFF ratio” value is 1.12.

Regarding GGGUCGCUACAAUAUAAUCGCGUGGAUAUGGCACGCAAGUUUCUACCGGGCACCGUAAAUGUCCGACUGGAGCCGUUCGGGCGGCUAUAAACAGACCUCAGGCCCGAAGCGUGGCGGCACCUGCCGCCGGUGGUAAAAAAGAUCGGAAGAGCACACGUCU, the “aptazyme ON/OFF ratio” value was 1.16.

With GGGUCGCUACUCCAUAAUCGCGUGGAUAUGGCACGCAAGUUUCUACCGGGCACCGUAAAUGUCCGACUGGAGCCGUUCGGGCGGCUAUAAACAGACCUCAGGCCCGAAGCGUGGCGGCACCUGCCGCCGGUGGUAAAAAAGAUCGGAAGAGCACACGUCU, the “aptazyme ON/OFF ratio” value stood at 4.55.

Regarding GGGUCGCUAAGGUAUAAUCGCGUGGAUAUGGCACGCAAGUUUCUACCGGGCACCGUAAAUGUCCGACUGGAGCCGUUCGGGCGGCUAUAAACAGACCUCAGGCCCGAAGCGUGGCGGCACCUGCCGCCGGUGGUAAAAAAGAUCGGAAGAGCACACGUCU, the “aptazyme ON/OFF ratio” value came to 1.11.

With GGGUCGCUAAGGGAUAAUCGCGUGGAUAUGGCACGCAAGUUUCUACCGGGCACCGUAAAUGUCCGACUGGAGCCGUUCGGGCGGCUAUAAACAGACCUCAGGCCCGAAGCGUGGCGGCACCUGCCGCCGGUGGUAAAAAAGAUCGGAAGAGCACACGUCU, the “aptazyme ON/OFF ratio” value amounted to 1.08.

As for GGGUCGCUACAUCAUAAUCGCGUGGAUAUGGCACGCAAGUUUCUACCGGGCACCGUAAAUGUCCGACUGGAGCCGUUCGGGCGGCUAUAAACAGACCUCAGGCCCGAAGCGUGGCGGCACCUGCCGCCGGUGGUAAAAAAGAUCGGAAGAGCACACGUCU, the “aptazyme ON/OFF ratio” value is 1.34.

Regarding GGGUCGCUACAACAUAAUCGCGUGGAUAUGGCACGCAAGUUUCUACCGGGCACCGUAAAUGUCCGACUGGAGCCGUUCGGGCGGCUAUAAACAGACCUCAGGCCCGAAGCGUGGCGGCACCUGCCGCCGGUGGUAAAAAAGAUCGGAAGAGCACACGUCU, the “aptazyme ON/OFF ratio” value was 1.27.

As for GGGUCGCUACAGCAUAAUCGCGUGGAUAUGGCACGCAAGUUUCUACCGGGCACCGUAAAUGUCCGACUGGAGCCGUUCGGGCGGCUAUAAACAGACCUCAGGCCCGAAGCGUGGCGGCACCUGCCGCCGGUGGUAAAAAAGAUCGGAAGAGCACACGUCU, the “aptazyme ON/OFF ratio” value came to 1.14.

As to GGGUCGCUACUUAAUAAUCGCGUGGAUAUGGCACGCAAGUUUCUACCGGGCACCGUAAAUGUCCGACUGGAGCCGUUCGGGCGGCUAUAAACAGACCUCAGGCCCGAAGCGUGGCGGCACCUGCCGCCGGUGGUAAAAAAGAUCGGAAGAGCACACGUCU, the “aptazyme ON/OFF ratio” value amounted to 1.2.

For GGGUCGCUACUUUAUAAUCGCGUGGAUAUGGCACGCAAGUUUCUACCGGGCACCGUAAAUGUCCGACUGGAGCCGUUCGGGCGGCUAUAAACAGACCUCAGGCCCGAAGCGUGGCGGCACCUGCCGCCGGUGGUAAAAAAGAUCGGAAGAGCACACGUCU, the “aptazyme ON/OFF ratio” value turned out to be 1.14.

For the variant GGGUCGCUACUUGAUAAUCGCGUGGAUAUGGCACGCAAGUUUCUACCGGGCACCGUAAAUGUCCGACUGGAGCCGUUCGGGCGGCUAUAAACAGACCUCAGGCCCGAAGCGUGGCGGCACCUGCCGCCGGUGGUAAAAAAGAUCGGAAGAGCACACGUCU, the “aptazyme ON/OFF ratio” value amounted to 1.16.

Regarding GGGUCGCUAAGUCAUAAUCGCGUGGAUAUGGCACGCAAGUUUCUACCGGGCACCGUAAAUGUCCGACUGGAGCCGUUCGGGCGGCUAUAAACAGACCUCAGGCCCGAAGCGUGGCGGCACCUGCCGCCGGUGGUAAAAAAGAUCGGAAGAGCACACGUCU, the “aptazyme ON/OFF ratio” value was determined as 1.31.

On to GGGUCGCUAAGUGAUAAUCGCGUGGAUAUGGCACGCAAGUUUCUACCGGGCACCGUAAAUGUCCGACUGGAGCCGUUCGGGCGGCUAUAAACAGACCUCAGGCCCGAAGCGUGGCGGCACCUGCCGCCGGUGGUAAAAAAGAUCGGAAGAGCACACGUCU, for which the “aptazyme ON/OFF ratio” value was 1.13.

As for GGGUCGCUAAGUAAUAAUCGCGUGGAUAUGGCACGCAAGUUUCUACCGGGCACCGUAAAUGUCCGACUGGAGCCGUUCGGGCGGCUAUAAACAGACCUCAGGCCCGAAGCGUGGCGGCACCUGCCGCCGGUGGUAAAAAAGAUCGGAAGAGCACACGUCU, the “aptazyme ON/OFF ratio” value was determined as 1.16.

Consider GGGUCGCUAAGUUAUAAUCGCGUGGAUAUGGCACGCAAGUUUCUACCGGGCACCGUAAAUGUCCGACUGGAGCCGUUCGGGCGGCUAUAAACAGACCUCAGGCCCGAAGCGUGGCGGCACCUGCCGCCGGUGGUAAAAAAGAUCGGAAGAGCACACGUCU, for which the “aptazyme ON/OFF ratio” value amounted to 1.27.

As for GGGUCGCUACUGGAUAAUCGCGUGGAUAUGGCACGCAAGUUUCUACCGGGCACCGUAAAUGUCCGACUGGAGCCGUUCGGGCGGCUAUAAACAGACCUCAGGCCCGAAGCGUGGCGGCACCUGCCGCCGGUGGUAAAAAAGAUCGGAAGAGCACACGUCU, the “aptazyme ON/OFF ratio” value turned out to be 1.26.

In the case of GGGUCGCUACUGUAUAAUCGCGUGGAUAUGGCACGCAAGUUUCUACCGGGCACCGUAAAUGUCCGACUGGAGCCGUUCGGGCGGCUAUAAACAGACCUCAGGCCCGAAGCGUGGCGGCACCUGCCGCCGGUGGUAAAAAAGAUCGGAAGAGCACACGUCU, the “aptazyme ON/OFF ratio” value turned out to be 1.15.

As for GGGUCGCUACUGAAUAAUCGCGUGGAUAUGGCACGCAAGUUUCUACCGGGCACCGUAAAUGUCCGACUGGAGCCGUUCGGGCGGCUAUAAACAGACCUCAGGCCCGAAGCGUGGCGGCACCUGCCGCCGGUGGUAAAAAAGAUCGGAAGAGCACACGUCU, the “aptazyme ON/OFF ratio” value was 1.26.

Take GGGUCGCUACUUCAUAAUCGCGUGGAUAUGGCACGCAAGUUUCUACCGGGCACCGUAAAUGUCCGACUGGAGCCGUUCGGGCGGCUAUAAACAGACCUCAGGCCCGAAGCGUGGCGGCACCUGCCGCCGGUGGUAAAAAAGAUCGGAAGAGCACACGUCU: the “aptazyme ON/OFF ratio” value was determined as 1.2.

As for GGGUCGCUACUGCAUAAUCGCGUGGAUAUGGCACGCAAGUUUCUACCGGGCACCGUAAAUGUCCGACUGGAGCCGUUCGGGCGGCUAUAAACAGACCUCAGGCCCGAAGCGUGGCGGCACCUGCCGCCGGUGGUAAAAAAGAUCGGAAGAGCACACGUCU, the “aptazyme ON/OFF ratio” value amounted to 1.2.

Take GGGUCGCUACUACAUAAUCGCGUGGAUAUGGCACGCAAGUUUCUACCGGGCACCGUAAAUGUCCGACUGGAGCCGUUCGGGCGGCUAUAAACAGACCUCAGGCCCGAAGCGUGGCGGCACCUGCCGCCGGUGGUAAAAAAGAUCGGAAGAGCACACGUCU: the “aptazyme ON/OFF ratio” value was 1.27.

GGGUCGCUACAUAAUAAUCGCGUGGAUAUGGCACGCAAGUUUCUACCGGGCACCGUAAAUGUCCGACUGGAGCCGUUCGGGCGGCUAUAAACAGACCUCAGGCCCGAAGCGUGGCGGCACCUGCCGCCGGUGGUAAAAAAGAUCGGAAGAGCACACGUCU: the “aptazyme ON/OFF ratio” value was found to be 1.21.

As to GGGUCGCUAAGCGAUAAUCGCGUGGAUAUGGCACGCAAGUUUCUACCGGGCACCGUAAAUGUCCGACUGGAGCCGUUCGGGCGGCUAUAAACAGACCUCAGGCCCGAAGCGUGGCGGCACCUGCCGCCGGUGGUAAAAAAGAUCGGAAGAGCACACGUCU, the “aptazyme ON/OFF ratio” value is 1.02.

As to GGGUCGCUAAGCAAUAAUCGCGUGGAUAUGGCACGCAAGUUUCUACCGGGCACCGUAAAUGUCCGACUGGAGCCGUUCGGGCGGCUAUAAACAGACCUCAGGCCCGAAGCGUGGCGGCACCUGCCGCCGGUGGUAAAAAAGAUCGGAAGAGCACACGUCU, the “aptazyme ON/OFF ratio” value is 1.07.

As for GGGUCGCUAAGCUAUAAUCGCGUGGAUAUGGCACGCAAGUUUCUACCGGGCACCGUAAAUGUCCGACUGGAGCCGUUCGGGCGGCUAUAAACAGACCUCAGGCCCGAAGCGUGGCGGCACCUGCCGCCGGUGGUAAAAAAGAUCGGAAGAGCACACGUCU, the “aptazyme ON/OFF ratio” value stood at 1.25.

As to GGGUCGCUACUAUAUAAUCGCGUGGAUAUGGCACGCAAGUUUCUACCGGGCACCGUAAAUGUCCGACUGGAGCCGUUCGGGCGGCUAUAAACAGACCUCAGGCCCGAAGCGUGGCGGCACCUGCCGCCGGUGGUAAAAAAGAUCGGAAGAGCACACGUCU, the “aptazyme ON/OFF ratio” value worked out at 1.31.

GGGUCGCUACUAGAUAAUCGCGUGGAUAUGGCACGCAAGUUUCUACCGGGCACCGUAAAUGUCCGACUGGAGCCGUUCGGGCGGCUAUAAACAGACCUCAGGCCCGAAGCGUGGCGGCACCUGCCGCCGGUGGUAAAAAAGAUCGGAAGAGCACACGUCU: the “aptazyme ON/OFF ratio” value was 1.17.

For the variant GGGUCGCUACUAAAUAAUCGCGUGGAUAUGGCACGCAAGUUUCUACCGGGCACCGUAAAUGUCCGACUGGAGCCGUUCGGGCGGCUAUAAACAGACCUCAGGCCCGAAGCGUGGCGGCACCUGCCGCCGGUGGUAAAAAAGAUCGGAAGAGCACACGUCU, the “aptazyme ON/OFF ratio” value was determined as 1.38.

Turning to GGGUCGCUACACCAUAAUCGCGUGGAUAUGGCACGCAAGUUUCUACCGGGCACCGUAAAUGUCCGACUGGAGCCGUUCGGGCGGCUAUAAACAGACCUCAGGCCCGAAGCGUGGCGGCACCUGCCGCCGGUGGUAAAAAAGAUCGGAAGAGCACACGUCU, the “aptazyme ON/OFF ratio” value was 2.6.

GGGUCGCUACAGAAUAAUCGCGUGGAUAUGGCACGCAAGUUUCUACCGGGCACCGUAAAUGUCCGACUGGAGCCGUUCGGGCGGCUAUAAACAGACCUCAGGCCCGAAGCGUGGCGGCACCUGCCGCCGGUGGUAAAAAAGAUCGGAAGAGCACACGUCU: the “aptazyme ON/OFF ratio” value came to 1.11.

GGGUCGCUACAGUAUAAUCGCGUGGAUAUGGCACGCAAGUUUCUACCGGGCACCGUAAAUGUCCGACUGGAGCCGUUCGGGCGGCUAUAAACAGACCUCAGGCCCGAAGCGUGGCGGCACCUGCCGCCGGUGGUAAAAAAGAUCGGAAGAGCACACGUCU: the “aptazyme ON/OFF ratio” value was found to be 1.18.

As to GGGUCGCUACAGGAUAAUCGCGUGGAUAUGGCACGCAAGUUUCUACCGGGCACCGUAAAUGUCCGACUGGAGCCGUUCGGGCGGCUAUAAACAGACCUCAGGCCCGAAGCGUGGCGGCACCUGCCGCCGGUGGUAAAAAAGAUCGGAAGAGCACACGUCU, the “aptazyme ON/OFF ratio” value is 1.39.
